Legend:
[1] = biological target: T1, DExH1 (Arabidopsis thaliana, UniProt F4ILR7 1-995); assay: MST; preferred substrate (3' tail rG4); EC50 only in figure; MST: 20 nM FAM-RNA, buffer not in material; pull-down: 20 mM Tris-HCl pH 7.5, 300 mM KCl, 0.1% Tween-20, 2 mM EDTA, RNase inhibitor, 4 °C 4 h; conditions: protein: recombinant; tags: 6xHis-SUMO removed; label: 3'-FAM; G4, 3' ss tail 15 nt
T1 sequence: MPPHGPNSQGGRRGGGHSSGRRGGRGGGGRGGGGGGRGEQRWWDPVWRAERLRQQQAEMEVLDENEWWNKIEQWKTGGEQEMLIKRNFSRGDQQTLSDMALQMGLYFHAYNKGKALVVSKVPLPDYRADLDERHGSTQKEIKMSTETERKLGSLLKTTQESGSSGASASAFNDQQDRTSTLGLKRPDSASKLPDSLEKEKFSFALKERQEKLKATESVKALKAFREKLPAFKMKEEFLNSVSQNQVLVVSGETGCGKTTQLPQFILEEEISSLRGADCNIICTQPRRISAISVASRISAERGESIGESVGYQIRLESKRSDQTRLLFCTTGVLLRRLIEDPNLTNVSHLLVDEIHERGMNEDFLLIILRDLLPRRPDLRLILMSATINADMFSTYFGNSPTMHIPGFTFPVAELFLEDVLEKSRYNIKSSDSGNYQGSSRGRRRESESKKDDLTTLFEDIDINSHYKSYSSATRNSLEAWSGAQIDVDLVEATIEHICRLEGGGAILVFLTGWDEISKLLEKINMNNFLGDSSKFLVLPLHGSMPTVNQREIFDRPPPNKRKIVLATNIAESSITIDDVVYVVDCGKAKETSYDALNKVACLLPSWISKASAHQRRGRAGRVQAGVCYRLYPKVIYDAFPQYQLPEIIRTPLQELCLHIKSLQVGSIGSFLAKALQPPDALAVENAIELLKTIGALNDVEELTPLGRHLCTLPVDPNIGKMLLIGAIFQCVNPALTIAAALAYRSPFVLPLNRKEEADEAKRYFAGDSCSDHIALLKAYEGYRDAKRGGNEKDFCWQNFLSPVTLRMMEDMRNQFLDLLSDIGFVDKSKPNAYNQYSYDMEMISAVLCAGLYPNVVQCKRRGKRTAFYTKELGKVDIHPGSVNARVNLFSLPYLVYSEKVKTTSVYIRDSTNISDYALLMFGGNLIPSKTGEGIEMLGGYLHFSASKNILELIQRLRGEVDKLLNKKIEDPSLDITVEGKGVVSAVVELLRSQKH

[2] = biological target: T2, DExH15 (Arabidopsis thaliana, UniProt B9DFG3 1-1171); assay: as above; conditions: protein: recombinant; tags: 6xHis-SUMO removed; label: 3'-FAM; G4, 3' ss tail 15 nt
T2 sequence: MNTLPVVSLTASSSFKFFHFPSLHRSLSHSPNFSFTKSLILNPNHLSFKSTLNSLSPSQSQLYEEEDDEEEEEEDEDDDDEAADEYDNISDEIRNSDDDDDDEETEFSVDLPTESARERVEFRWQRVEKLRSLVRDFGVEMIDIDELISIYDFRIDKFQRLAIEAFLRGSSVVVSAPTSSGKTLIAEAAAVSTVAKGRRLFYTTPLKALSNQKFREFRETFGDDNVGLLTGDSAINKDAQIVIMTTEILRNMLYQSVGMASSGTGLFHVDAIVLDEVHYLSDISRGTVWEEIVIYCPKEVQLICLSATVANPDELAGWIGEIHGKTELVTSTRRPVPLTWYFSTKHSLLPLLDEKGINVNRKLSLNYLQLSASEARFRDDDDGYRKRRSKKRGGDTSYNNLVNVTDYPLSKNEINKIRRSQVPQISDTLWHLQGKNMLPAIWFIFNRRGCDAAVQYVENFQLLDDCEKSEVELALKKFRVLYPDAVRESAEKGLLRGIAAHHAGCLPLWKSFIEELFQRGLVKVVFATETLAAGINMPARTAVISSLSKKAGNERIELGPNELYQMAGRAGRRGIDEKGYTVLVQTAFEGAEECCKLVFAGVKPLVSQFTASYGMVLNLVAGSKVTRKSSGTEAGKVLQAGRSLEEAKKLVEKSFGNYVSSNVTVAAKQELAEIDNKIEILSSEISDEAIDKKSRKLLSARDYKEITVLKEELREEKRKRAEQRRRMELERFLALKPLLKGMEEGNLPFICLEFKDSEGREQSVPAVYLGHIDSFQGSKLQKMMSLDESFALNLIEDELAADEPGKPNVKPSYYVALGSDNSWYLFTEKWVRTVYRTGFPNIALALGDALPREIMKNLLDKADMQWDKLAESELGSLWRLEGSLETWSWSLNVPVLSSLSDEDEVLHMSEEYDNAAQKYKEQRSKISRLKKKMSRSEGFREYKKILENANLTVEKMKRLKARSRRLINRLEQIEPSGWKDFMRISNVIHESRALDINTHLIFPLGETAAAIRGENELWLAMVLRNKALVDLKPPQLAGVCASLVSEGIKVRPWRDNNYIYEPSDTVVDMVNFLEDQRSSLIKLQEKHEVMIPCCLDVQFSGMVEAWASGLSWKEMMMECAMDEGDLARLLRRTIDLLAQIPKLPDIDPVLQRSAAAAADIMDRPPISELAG

GGGAGGGAAGGGGAAGGGGUUUUUUUUUUUUUUU (structured_RNA) [G4S (3' tail rG4)]: binds [1]; binds [2].

Reference: PMC9293640, “Insights into the structural dynamics and helicase-catalyzed unfolding of plant RNA G-quadruplexes”
